Test results reported in US20100196361A1, “Method of inhibition of vascular development using an antibody” (DYAX CORP., priority 2003, published 2010).

How the values were obtained:
Tie1 = Tie1 (Homo sapiens, UniProt P35590); assay: Tie1 phosphorylation assay; assay type: cell-based; set-up: an expression vector containing a V5-tagged full length Tie1 cDNA; expressed in transfected cells; host or cells: COS1
Description: Tie1 phosphorylation assay. COS1 cells were transfected with pcDNA3-Tie1-V5. After 24 h of transfection, the cells were serum starved for 8 h and then treated with E3 IgG. For the Tie1 phosphorylation assay, HDMVECs were cultured on 10 cm dishes to near confluence, starved (8-16 h) in serum free medium and stimulated as indicated. After the stimulations, the cells were lysed in lysis buffer (RIPA-DOC: 50 mM Tris-HCl pH 8.0, 150 mM NaCl, 1% Triton-X-100, 0.1% SDS, 0.5% DOC, 10 mM EDTA, supplemented with aprotinin, leupeptin, PMSF and sodium vanadate). Clarified lysates from transfected COS 1 cells or HDMVECs were immunoprecipitated with anti-V5 or anti-Tie1 B9, respectively. Proteins were separated by SDS-PAGE, transferred to nitrocellulose and immunoblotted using the anti-phosphotyrosine and anti-Tie1 (R&D systems) antibodies.
To test if the E3 IgG binding to the extracellular region of Tie1 induces autophosphorylation of Tie1, the Tie1 receptor phosphorylation level in response to E3 IgG treatment was studied in transiently transfected COS 1 cells and human primary endothelial cells. COS 1 cells were transfected with an expression vector containing a V5-tagged full length Tie1 cDNA, and, after serum starvation, the cells were treated with E3 IgG (200 ng/ml). Cell lysates were extracted at several time points and Tie1 was immunoprecipitated with anti-V5 followed by western blotting using anti-phosphotyrosine and anti-Tie1 antibodies. […] To determine if E3 IgG induces Tie1 phosphorylation in primary endothelial cells, HDMVEC cells were serum starved and stimulated with several concentrations of E3 for 60 min. […] Also higher concentrations of E3 (500-1000 ng/ml) induced Tie1 phosphorylation but the response was more rapid and was most prominent after 5 min of stimulation.
To study the kinetics of E3 IgG induced Tie1 activation, cells were stimulated with E3 IgG (200 ng/ml) and receptor phosphorylation was studied at various time points. Tie1 phosphorylation was highest 15-30 min after E3 IgG treatment but phosphorylation persisted for up to 1 h.

human Tie1 Fc = molecular target: T1, human Tie1 Fc (Homo sapiens, UniProt P35590); assay: BIAcore, Fab over Tie1/Fc coated on CM5 chip; assay type: binding; conditions: Fab analyte
T1 construct: selected against the Tie1 extracellular domain fused to human Fc or to a histidine purification tag
T1 sequence (P35590 22-759 limits assumed): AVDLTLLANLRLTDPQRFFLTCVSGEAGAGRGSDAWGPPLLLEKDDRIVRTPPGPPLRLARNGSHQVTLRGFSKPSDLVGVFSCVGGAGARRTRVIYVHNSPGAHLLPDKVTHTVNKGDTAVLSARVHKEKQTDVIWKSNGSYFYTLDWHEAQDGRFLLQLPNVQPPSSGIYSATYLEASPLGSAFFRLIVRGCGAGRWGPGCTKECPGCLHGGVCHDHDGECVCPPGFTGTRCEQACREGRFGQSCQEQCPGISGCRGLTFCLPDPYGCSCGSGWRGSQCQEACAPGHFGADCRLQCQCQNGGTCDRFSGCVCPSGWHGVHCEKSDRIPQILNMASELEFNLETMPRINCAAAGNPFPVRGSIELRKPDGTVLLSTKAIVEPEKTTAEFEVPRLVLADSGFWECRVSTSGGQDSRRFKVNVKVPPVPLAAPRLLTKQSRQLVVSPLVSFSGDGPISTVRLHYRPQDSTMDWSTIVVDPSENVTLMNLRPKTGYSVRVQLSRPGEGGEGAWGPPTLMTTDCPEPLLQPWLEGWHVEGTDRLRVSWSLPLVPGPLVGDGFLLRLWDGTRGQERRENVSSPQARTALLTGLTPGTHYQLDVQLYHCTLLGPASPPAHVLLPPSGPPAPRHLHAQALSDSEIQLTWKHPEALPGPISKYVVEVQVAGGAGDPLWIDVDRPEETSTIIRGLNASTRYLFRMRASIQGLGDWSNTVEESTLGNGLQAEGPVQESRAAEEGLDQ
Text: To evaluate if the binding behaviour had been affected in any way by the conversion of the somatic mutations back to germline residues, the parental and the germlined E3b antibodies were produced and tested in Biacore as Fab fragments. Here, by contrast to what was done for the IgGs (see Example 28), and in order to measure a monovalent interaction, the Fabs were run over the antigen directly coated onto the surface.
Recombinant human Tie1/Fc was coated on a CM5 chip. The surface of the chip was first activated with a 7-minute pulse of 0.05 M NHS/0.2 M EDC, then Tie1/Fc (2 μg/ml in 10 mM sodium acetate, pH 4.0) was run over the chip surface until 750 RUs were coated on the surface. All flow cells were subsequently deactivated with a 7-minute pulse of 1 M ethanolamine hydrochloride, pH 8.5. All further experiments were performed in HBS buffer.
The parental and the germlined E3b Fabs were prepared. A series of dilution (50, 25, 12.5, 6.25 and 3.125 nM) was prepared in HBS buffer. Samples were injected at 30 μl/min for 5.3 minutes using the KINJECT™ program. This was followed by a 10-minute dissociation phase, and the remaining Fab was stripped from the surface with a single 18-sec injection of 50 mM NaOH/1 M NaCl.
Sensorgrams were analyzed using the simultaneous ka/kd fitting program from the BIAEVALUATION™ software 3.1 assuming a 1:1 model.

Sequence of Tie1 (P35590 22-1138): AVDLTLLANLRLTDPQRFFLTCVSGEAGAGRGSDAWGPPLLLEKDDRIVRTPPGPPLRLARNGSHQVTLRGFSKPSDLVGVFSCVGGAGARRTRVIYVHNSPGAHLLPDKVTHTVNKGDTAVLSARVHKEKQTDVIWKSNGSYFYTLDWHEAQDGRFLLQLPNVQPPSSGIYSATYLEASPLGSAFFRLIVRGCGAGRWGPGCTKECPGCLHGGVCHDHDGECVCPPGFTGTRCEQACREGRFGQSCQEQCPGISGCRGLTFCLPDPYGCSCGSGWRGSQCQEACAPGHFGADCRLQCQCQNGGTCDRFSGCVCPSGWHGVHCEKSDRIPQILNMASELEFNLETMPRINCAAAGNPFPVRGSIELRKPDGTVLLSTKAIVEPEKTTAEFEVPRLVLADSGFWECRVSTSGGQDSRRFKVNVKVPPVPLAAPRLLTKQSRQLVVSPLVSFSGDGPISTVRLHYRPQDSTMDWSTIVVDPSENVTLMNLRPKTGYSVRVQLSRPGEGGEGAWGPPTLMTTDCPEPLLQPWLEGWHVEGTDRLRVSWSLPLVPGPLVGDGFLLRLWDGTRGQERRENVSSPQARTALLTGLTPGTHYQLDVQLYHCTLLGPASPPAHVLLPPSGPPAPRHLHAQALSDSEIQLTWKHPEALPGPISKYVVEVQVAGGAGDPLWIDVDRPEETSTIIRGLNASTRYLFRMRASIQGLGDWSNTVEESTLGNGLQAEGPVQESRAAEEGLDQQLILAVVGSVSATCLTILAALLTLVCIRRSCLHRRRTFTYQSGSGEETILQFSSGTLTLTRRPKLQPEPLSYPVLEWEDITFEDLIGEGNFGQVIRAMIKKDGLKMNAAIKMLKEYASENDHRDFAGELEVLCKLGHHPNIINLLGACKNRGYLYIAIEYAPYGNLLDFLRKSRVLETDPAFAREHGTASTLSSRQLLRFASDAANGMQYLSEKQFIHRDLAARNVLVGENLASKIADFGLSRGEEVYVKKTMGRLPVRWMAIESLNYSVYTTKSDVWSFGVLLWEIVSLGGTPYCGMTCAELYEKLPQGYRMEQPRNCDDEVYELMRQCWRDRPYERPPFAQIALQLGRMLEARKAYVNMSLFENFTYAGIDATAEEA

| Molecule | persistence of Tie1 phosphorylation (Tie1; 200 ng/ml) | time of highest Tie1 phosphorylation (Tie1; 200 ng/ml) [min] | concentration giving receptor phosphorylation (Tie1; HDMVEC, serum starved, 60 min stimulation) [ng/mL] | time of most prominent Tie1 phosphorylation (Tie1; HDMVEC, 500-1000 ng/ml) [min] | koff (human Tie1 Fc; Human Tie1 Fc coated on CM5) [s⁻¹] | kon (human Tie1 Fc; Human Tie1 Fc coated on CM5, 750 RU) [M⁻¹ s⁻¹] |
| --- | --- | --- | --- | --- | --- | --- |
| E3: human anti-Tie1 antibody from phage Fab library, reformatted as IgG; HC variable SEQ ID NO:114, LC variable SEQ ID NO:116 (antibody, V domains shown, IgG constant regions; Synthetically generated peptide) VH: EVQLLESGGGLVQPGGSLRLSCAASGFTFSMYGMVWVRQAPGKGLEWVSVISPSGGNTGYADSVKGRFTISRDNSKNTLYLQVNSLRAEDTAVYYCARAPRGYSYGYYYWGQGTLVTVSSASTKGPSVFPLAPSSKSTSGG VL: DIQMTQSPLSLSASVGDRVTITCRASQGIGHYLAWYQQKPGKVPKLLIYTASTLQSGVPSRFSGSGSGTDFTLTINSLQPEDVATYYCQQFNSYPHTFGQGTRLDIK | up to 1 h | 15 to 30 | 50 to 200 | 5 | – | – |
| parental E3 Fab: soluble Fab fragment of the parental E3 anti-Tie1 antibody (antibody, V domains shown) VH: EVQLLESGGGLVQPGGSLRLSCAASGFTFSMYGMVWVRQAPGKGLEWVSVISPSGGNTGYADSVKGRFTISRDNSKNTLYLQVNSLRAEDTAVYYCARAPRGYSYGYYYWGQGTLVTVSSASTKGPSVFPLAPSSKSTSGG VL: DIQMTQSPLSLSASVGDRVTITCRASQGIGHYLAWYQQKPGKVPKLLIYTASTLQSGVPSRFSGSGSGTDFTLTINSLQPEDVATYYCQQFNSYPHTFGQGTRLDIK | – | – | – | – | 0.00105 | 88100 |
